Data on two molecules can be found in patent publication US20120316071A1 (published 2012).

In assay [1] the target is T1, rHuman Erythropoietin R/Fc Chimera, CF (R&D Systems Cat#963-ER) (human, UniProt P19235 25-250).
T1 construct: Bought recombinant protein; also called EPO R; EPO R/Fc; Fc part of the bought chimera not given
T1 sequence (looked up): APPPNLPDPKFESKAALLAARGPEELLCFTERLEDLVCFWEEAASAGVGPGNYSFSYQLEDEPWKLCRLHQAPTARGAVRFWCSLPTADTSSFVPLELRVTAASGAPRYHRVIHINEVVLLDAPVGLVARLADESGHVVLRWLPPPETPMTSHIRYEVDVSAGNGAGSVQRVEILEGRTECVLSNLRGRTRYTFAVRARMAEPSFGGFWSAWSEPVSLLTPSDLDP
Briefly: ECL multispot (MSD) assay, spotted antigen; Fab 0.20 (head prints uM).

Assay [2] deals with T2, Recombinant Human DLL4 (R&D Systems Cat#1506-D4/CF) (human, UniProt Q9NR61 27-524).
T2 construct: Bought recombinant protein; also called delta-like protein 4
The description is as above.

Assay [3] deals with T3, rHuman ErbB2/Fc Chimera, CF (R&D Systems Cat#1129-ER) (human, UniProt P04626 23-652).
T3 construct: Bought recombinant protein; Fc part of the bought chimera not given
Described as above.

For assay [4], the target named is T4, rHuman EGF R/Fc Chimera, CF (R&D Systems Cat#344-ER) (human, UniProt P00533 25-645).
T4 construct: Bought recombinant protein; Fc part of the bought chimera not given
The assay is described as above.

For assay [5], the target named is T5, rHuman HGF R/c-MET/Fc Chimera, CF (R&D Systems Cat#358-MT/CF) (human, UniProt P08581 25-932).
T5 construct: Bought recombinant protein; also called HGF R/Fc; Fc part of the bought chimera not given
T5 sequence (P08581 25-932, change not shown): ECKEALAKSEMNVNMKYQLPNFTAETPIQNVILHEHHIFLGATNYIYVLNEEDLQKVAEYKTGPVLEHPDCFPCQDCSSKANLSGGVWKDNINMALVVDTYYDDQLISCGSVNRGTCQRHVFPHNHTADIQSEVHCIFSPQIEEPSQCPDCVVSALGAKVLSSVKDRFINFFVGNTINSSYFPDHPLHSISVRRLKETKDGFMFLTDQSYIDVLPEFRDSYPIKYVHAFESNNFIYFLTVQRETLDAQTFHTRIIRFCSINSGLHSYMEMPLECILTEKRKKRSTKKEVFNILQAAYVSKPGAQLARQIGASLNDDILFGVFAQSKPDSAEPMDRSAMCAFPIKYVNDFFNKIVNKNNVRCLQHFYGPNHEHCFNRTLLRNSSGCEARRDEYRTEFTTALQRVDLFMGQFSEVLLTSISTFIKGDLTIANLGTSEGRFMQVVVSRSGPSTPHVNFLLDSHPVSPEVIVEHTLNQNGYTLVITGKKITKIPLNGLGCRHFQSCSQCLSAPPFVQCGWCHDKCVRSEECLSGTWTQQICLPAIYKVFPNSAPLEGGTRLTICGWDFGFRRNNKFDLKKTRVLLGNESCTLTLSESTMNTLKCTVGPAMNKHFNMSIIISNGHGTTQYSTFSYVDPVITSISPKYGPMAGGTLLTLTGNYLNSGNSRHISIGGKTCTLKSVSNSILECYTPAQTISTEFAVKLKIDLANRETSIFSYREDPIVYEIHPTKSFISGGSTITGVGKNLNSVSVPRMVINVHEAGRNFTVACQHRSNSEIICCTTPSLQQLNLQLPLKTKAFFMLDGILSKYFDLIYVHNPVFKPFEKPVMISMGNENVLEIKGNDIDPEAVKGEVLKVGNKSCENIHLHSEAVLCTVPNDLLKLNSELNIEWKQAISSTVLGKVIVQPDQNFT
The assay is described as above.

Assay [6] deals with T6, rHuman Notch-1/Fc Chimera, CF (R&D Systems Cat#3647-TK) (human, UniProt P46531 19-526).
T6 construct: Bought recombinant protein; Fc part of the bought chimera not given
The assay is described as above.

Assay [7] deals with T7, rHuman CD44/Fc Chimera, CF (R&D Systems Cat#3660-CD) (human, UniProt P16070 21-220).
T7 construct: Bought recombinant protein; Fc part of the bought chimera not given
Described as above.

Assay [8] deals with T8, rHuman IGF-1 sR, CF (R&D Systems Cat#391-GR) (human, UniProt P08069 31-932).
T8 construct: Bought soluble receptor; The column head prints only 'IGF-1'; also called insulin-like growth factor-1 soluble receptor
The assay is described as above.

Assay [9] deals with T9, rHuman P-Cadherin/Fc Chimera, CF (R&D Systems Cat#861-PC) (human, UniProt P22223 108-654).
T9 construct: Bought recombinant protein; Fc part of the bought chimera not given
The description is as above.

In assay [10] the target is T1, rHuman Erythropoietin R/Fc Chimera, CF …. The experiment in a line: ECL multispot (MSD) assay, spotted antigen; Fab 200.00 (head prints uM).
Assay [11] deals with T2, Recombinant Human DLL4 (R&D Systems …). Described as above.
The target in assay [12] is T3, rHuman ErbB2/Fc Chimera, CF (R&D …). The assay is described as above.
For assay [13], the target named is T4, rHuman EGF R/Fc Chimera, CF (R&D …). Described as above.
Assay [14] has as its target T5, rHuman HGF R/c-MET/Fc Chimera, CF (R&D …). The description is as above.
Assay [15] addresses T6, rHuman Notch-1/Fc Chimera, CF (R&D …). Described as above.
In assay [16] the target is T7, rHuman CD44/Fc Chimera, CF (R&D Systems …). Described as above.
Assay [17] has as its target T8, rHuman IGF-1 sR, CF (R&D Systems …). Described as above.
For assay [18], the target named is T10, Recombinant Human DLL4 (R&D Systems Cat#1506-D4/CF) (human, UniProt Q9NR61 27-524).
T10 construct: Bought recombinant protein; also called rHuman DLL4; delta-like protein 4
Briefly: MSD Multispot ECL, antigen spotted on plate, Fab at 15 nM; blank spot 261.

Assay [19] addresses T11, rHuman Notch-1/Fc Chimera, CF (R&D Systems Cat#3647-TK) (human, UniProt P46531 19-526).
T11 construct: Bought Fc chimera; Fc part of the bought chimera not given
The assay is described as above.

For assay [20], the target named is T12, rHuman CD44/Fc Chimera, CF (R&D Systems Cat#3660-CD) (human, UniProt P16070 21-220).
T12 construct: Bought Fc chimera; Fc part of the bought chimera not given
The description is as above.

Assay [21] has as its target T13, rHuman P-Cadherin/Fc Chimera, CF (R&D Systems Cat#861-PC) (human, UniProt P22223 108-654).
T13 construct: Bought Fc chimera; Fc part of the bought chimera not given
Described as above.

B1: Fab VH5-51_IGHD5-18*01>3_IGHJ4*01 G100K/G104T & V3-4_IGLJ1*01 (Fab, V domains shown)
VH: EVQLVQSGAEVKKPGESLKISCKGSGYSFTSYWIGWVRQMPGKGLEWMGIIYPGDSDTRYSPSFQGQVTISADKSISTAYLQWSSLKASDTAMYYCARRKYSYTYDYFDYWGQGTLVTVSS
VL: QTVVTQEPSFSVSPGGTVTLTCGLSSGSVSTSYYPSWYQQTPGQAPRTLIYSTNTRSSGVPDRFSGSILGNKAALTITGAQADDESDYYCVLYMGSGISYVFGTGTKVTVL
notes: Tested as a Fab; The constant parts are the same as for the parent Fab (CH1 with His6/Flag tags, lambda CL); also called KT double mutant; H:KT
As for B1, the ECL signal/noise ratio in assay [1] stood at 1.7; in [2], 3; in [3], 2.5; in assay [4], 1.5; in assay [5] it was 2.4; in [6], 1.9. The ECL signal/noise ratio was 1.3 in [7]; 1.9 in assay [8]; 1.7 in assay [9]; 1.7 in assay [10]; 76.9 in [11]; 1.7 in [12]. The ECL signal/noise ratio was determined as 1.6 in assay [13]; 1.7 in assay [14]; 1.7 in assay [15]; 1.4 in [16]; 1.5 in assay [17].

B2: Fab VH6-1_IGHD3-3*01_IGHJ4*01 & V4-3_IGLJ4*01 (Fab, V domains shown)
VH: QVQLQQSGPGLVKPSQTLSLTCAISGDSVSSNSAAWNWIRQSPSRGLEWLGRTYYRSKWYNDYAVSVKSRITINPDTSKNQFSLQLNSVTPEDTAVYYCAREYYDFWSGYYTDYFDYWGQGTLVTVSS
VL: QPVLTQPTSLSASPGASARLTCTLRSGINLGSYRIFWYQQKPESPPRYLLSYYSDSSKHQGSGVPSRFSGSKDASSNAGILVISGLQSEDEADYYCMIWHSSASFVFGGGTQLIIL
notes: Tested as a purified germline Fab made in E. coli; The VH was cloned into plasmid A (CH1 constant region, His6 and Flag tags) and the lambda VL into plasmid E (lambda CL)
In the case of B2, the ECL signal in assay [18] was 690; in [19], 508; in [20] it was 454; in [21] it was 351.
